# Laboratory results taken from US20170362301A1 (Janssen / Centocor, published 2017).
# Where a chain is given by its changes, count along the chain named. Numbers in names are those of the source.
# B1: P54AR4-83v2 A3C, NEM conjugate (designed binder)
# chain: LPCPKNLVVSEVTEDSARLSWDDPWAFYESFLIQYQESEKVGEAIVLTVPGSERSYDLTGLKPGTEYTVSIYGVHNVYKDTNMRGLPLSAIFTT
# modifications: NEM on Cys 3
# notes: His-tagged
# B2: P54AR4-83v2 D23C, NEM conjugate (designed binder)
# chain: B1 chain with C3A, D23C
# modifications: NEM on Cys 23
# notes: His-tagged
# B3: P54AR4-83v2 G85C, NEM conjugate (designed binder)
# chain: B1 chain with C3A, G85C
# modifications: NEM on Cys 85
# notes: His-tagged
# B4: P54AR4-83v2 D22C, NEM conjugate (designed binder)
# chain: B1 chain with C3A, D22C
# modifications: NEM on Cys 22
# notes: His-tagged
# B5: P54AR4-83v2 F31C, NEM conjugate (designed binder)
# chain: B1 chain with C3A, F31C
# modifications: NEM on Cys 31
# notes: His-tagged
# B6: P54AR4-83v2 D15C, NEM conjugate (designed binder)
# chain: B1 chain with C3A, D15C
# modifications: NEM on Cys 15
# notes: His-tagged
# B7: P54AR4-83v2 I91C, NEM conjugate (designed binder)
# chain: B1 chain with C3A, I91C
# modifications: NEM on Cys 91
# notes: His-tagged; also called 191C
# B8: P54AR4-83v2 G51C, NEM conjugate (designed binder)
# chain: B1 chain with C3A, G51C
# modifications: NEM on Cys 51
# notes: His-tagged
# B9: P54AR4-83v2 G42C, NEM conjugate (designed binder)
# chain: B1 chain with C3A, G42C
# modifications: NEM on Cys 42
# notes: His-tagged
# B10: P54AR4-83v2 G64C, NEM conjugate (designed binder)
# chain: B1 chain with C3A, G64C
# modifications: NEM on Cys 64
# notes: His-tagged
# B11: P54AR4-83v2 G73C, NEM conjugate (designed binder)
# chain: B1 chain with C3A, G73C
# modifications: NEM on Cys 73
# notes: His-tagged
# B12: P54AR4-83v2 E43C, NEM conjugate (designed binder)
# chain: B1 chain with C3A, E43C
# modifications: NEM on Cys 43
# notes: His-tagged
# B13: P54AR4-83v2 E11C, NEM conjugate (designed binder)
# chain: B1 chain with C3A, E11C
# modifications: NEM on Cys 11
# notes: His-tagged
# B14: P54AR4-83v2 K5C, NEM conjugate (designed binder)
# chain: B1 chain with C3A, K5C
# modifications: NEM on Cys 5
# notes: His-tagged
# B15: P54AR4-83v2 G60C, NEM conjugate (designed binder)
# chain: B1 chain with C3A, G60C
# modifications: NEM on Cys 60
# notes: His-tagged
# B16: P54AR4-83v2 E29C, NEM conjugate (designed binder)
# chain: B1 chain with C3A, E29C
# modifications: NEM on Cys 29
# notes: His-tagged
# B17: P54AR4-83v2 I45C, NEM conjugate (designed binder)
# chain: B1 chain with C3A, I45C
# modifications: NEM on Cys 45
# notes: His-tagged
# B18: P54AR4-83v2 A90C, NEM conjugate (designed binder)
# chain: B1 chain with C3A, A90C
# modifications: NEM on Cys 90
# notes: His-tagged
# B19: P54AR4-83v2 A26C, NEM conjugate (designed binder)
# chain: B1 chain with C3A, A26C
# modifications: NEM on Cys 26
# notes: His-tagged
# B20: P54AR4-83v2 E14C, NEM conjugate (designed binder)
# chain: B1 chain with C3A, E14C
# modifications: NEM on Cys 14
# notes: His-tagged
# B21: P54AR4-83v2 H75C, NEM conjugate (designed binder)
# chain: B1 chain with C3A, H75C
# modifications: NEM on Cys 75
# notes: His-tagged
# B22: P54AR4-83v2 D80C, NEM conjugate (designed binder)
# chain: B1 chain with C3A, D80C
# modifications: NEM on Cys 80
# notes: His-tagged
# B23: P54AR4-83v2 E39C, NEM conjugate (designed binder)
# chain: B1 chain with C3A, E39C
# modifications: NEM on Cys 39
# notes: His-tagged
# B24: P54AR4-83v2 E53C, NEM conjugate (designed binder)
# chain: B1 chain with C3A, E53C
# modifications: NEM on Cys 53
# notes: His-tagged
# B25: P54AR4-83v2 F27C, NEM conjugate (designed binder)
# chain: B1 chain with C3A, F27C
# modifications: NEM on Cys 27
# notes: His-tagged
# Target: T1, EGFR (form in the assay not stated) (human, UniProt P00533 25-645, limits assumed)
# Experiment: ELISA, NEM conjugate 10 nM
row,Binder,binding ratio vs parent P54AR4-83v2 [ratio]
1,B1,0.34
2,B2,0.02
3,B3,0.19
4,B4,0.84
5,B5,0.04
6,B6,0.98
7,B7,0.9
8,B8,0.88
9,B9,0.84
10,B10,1.28
11,B11,0
12,B12,0.68
13,B13,0.9
14,B14,0.61
15,B15,0.86
16,B16,0.89
17,B17,0.91
18,B18,0.94
19,B19,0.95
20,B20,1.11
21,B21,0.07
22,B22,0.7
23,B23,0.9
24,B24,0.91
25,B25,0

# Target: T1, EGFR (form in the assay not stated)
# Experiment: ELISA, NEM conjugate 100 nM
row,Binder,binding ratio vs parent P54AR4-83v2 [ratio]
1,B1,0.88
2,B2,0.2
3,B3,0.02
4,B4,1.02
5,B5,0.34
6,B6,1.09
7,B7,1.01
8,B8,1.03
9,B9,0.99
10,B10,1.42
11,B11,0.02
12,B12,1.04
13,B13,1.08
14,B14,1.06
15,B15,1.02
16,B16,1.07
17,B17,1.04
18,B18,1.05
19,B19,1.06
20,B20,1.27
21,B21,0.19
22,B22,0.97
23,B23,1
24,B24,1.02
25,B25,0.07

# Target: T1, EGFR (form in the assay not stated)
# Experiment: ELISA, NEM conjugate 500 nM
row,Binder,binding ratio vs parent P54AR4-83v2 [ratio]
1,B1,0.82
2,B2,0.4
3,B3,0.29
4,B4,0.9
5,B5,0.62
6,B6,0.97
7,B7,1
8,B8,0.92
9,B9,0.9
10,B10,1.36
11,B11,0.21
12,B12,0.92
13,B13,0.95
14,B14,0.92
15,B15,0.93
16,B16,0.93
17,B17,0.93
18,B18,1.01
19,B19,0.95
20,B20,1.15
21,B21,0.25
22,B22,0.91
23,B23,0.9
24,B24,0.91
25,B25,0.23
